The source of these data is patent publication US12637662B2, “Cells, islets, and organoids that evade immune detection and autoimmunity, methods of production and use thereof” (SALK INSTITUTE FOR BIOLOGICAL STUDIES, priority 2018, dated 2026).

Entries after “also recorded” stand apart in the source; their conditions may differ.

Type in all cases: cell-based, human
In assay [1] the test system is ERRγ (ESRRG), mitochondrial and insulin gene expression. The assay can be described thus: Quantitative RT-PCR gene expression in hiPSC-derived islet organoids/HILOs. The conditions noted are these: hiPSC-derived islet organoids, MCS or HILOs. The protocol: hiPSCs were cultured in matrigel-coated plates. Single cell suspensions were prepared using Accutase, washed in PBS, and collected by centrifugation (1000-1300 rpm for 5 min). Cells were re-suspended with 3D Kelco Gel Stem TeSR™ Base Medium in the presence of the ROCK inhibitor (10 μM Y-27632, StemCell) for 5 to 7 days until spheroids reached 50-100 μm diameter. The medium was then replaced with 0.015% Kelco gel containing 0.3% methylcellulose and supplemented with 100 ng/ml human Activin A (R&D Systems), 3 μM CHIR99021 (Axon or Selleckchem) in differentiation medium (S1) for 1 day, and then 100 ng/ml human Activin in differentiation medium (S1) for another 2 days (Stage 1, Definitive Endoderm). Subsequently, the medium was replaced with differentiation medium (S2) with 50 ng/ml FGF7 (R&D Systems) for 2 days, differentiation medium (S3) with 50 ng/ml FGF7, 0.25 μM SANT-1 (Sigma), 1 μM Retinoic Acid (Sigma), 100 nM LDN193189, 10 μM Alk5 inhibitor II and 200 nM of the ß-Amyloid Precursor Protein modulator TPB for 3 days, then 50 ng/ml FGF7, 0.25 μM SANT-1 (Sigma), 1 μM Retinoic Acid (Sigma), 100 nM LDN193189, 10 μM Alk5 inhibitor II and 100 nM of the ß-Amyloid Precursor Protein modulator TPB for 2 days. Subsequently the medium was replaced with differentiation medium (S4) with 0.25 μM SANT-1, 50 nM retinoic acid, 100 nM LDN193189, 10 μM Alk5 inhibitor II, 1 μM T3 for 3 days. Subsequently, the medium was replaced with differentiation medium (S5) with 100 nM LDN193189, 100 nM […] inhibitor XX (GSiXX, Millipore), 10 μM Alk5 inhibitor IL, 1 μM T3 for 7 days. Subsequently, the medium was replaced with differentiation media (S5) with 10 μM Trolox (Calbiochem), 2 μM R428 (Selleckchem), 1 mM N-acetyl cysteine, 10 μM Alk5 inhibitor II, 1 μM T3 for an additional 7 to 20 days. […]
Total RNA was extracted using TRIzol reagent (Invitrogen) and RNeasy KIT (Qiagen). […] Real time quantitative RT-PCR (qPCR) was performed using SYBR Green (Bio-Rad).

In assay [2] the test system is chromatin accessibility in HILO cells. The assay can be described thus: ATAC-Seq chromatin accessibility in HILOs. The conditions noted are these: sorted GFP+ cells, WNT4 treatment. The source says:
[…] D. Buenrostro et al., 2015, Current Protocols in Molecular Biology, 109:21-29. Reads were aligned by Bowtie to hg19, and peaks were called by HOMER using default settings. Differential peaks and motif analyses from 2 biological duplicates were identified using HOMER essentially as instructed (see, e.g., S. Heinz et al., 2010, J. Mol. Cell, 38:576-589). Detailed methods for HOMER are freely available, e.g., at http://http://homer.salk.edu/homer/. Briefly, the program searches against the target and background sequences for enrichment of known motifs, and returns motifs enriched with a threshold of 1.5-fold change and a p-value of less than 0.05. Promoter regions, defined as 1 kilobase (kB) upstream from the transcription start site, of genes with enhanced chromatin accessibility upon Wnt4 treatment, were interrogated for enriched motifs of 8-16 bp using HOMER motif analysis.

Assay [3] has as its system insulin-expressing cells of HILOs. The assay can be described thus: Mitochondrial content (MitoTracker) and insulin-GFP by flow cytometry. The text has this:
FIGS. 8A-8H provide images, graphs, a schematic and a diagram showing results related to WNT4 mediated insulin-GFP expression and WNT4-driven metabolic maturation. FIG. 8A presents representative images of mitochondrial content, indicated by MitoTracker (red) staining, in PBS and WNT4 treated HILOs (scale bar, 100 μm). FIG. 8B presents graphs of flow cytometry quantification of insulin expression (GFP) and mitochondrial content in HILOs treated with recombinant human WNT4 (rhWNT4), WNT5A (rhWNT5A), or conditioned medium (CM) from control or WNT5A overexpressing fibroblasts (n=3). Error bars represent SEM. *p<0.05. FIG. 8C presents a gene ontology of transcriptional changes induced by WNT4 treatment (100 ng/ml WNT4 from day26 to day33) in HILOs. […] Error bars represent SEM. *p<0.05. FIG. 8E presents a Venn diagram showing overlap between WNT4-induced increases in chromatin accessibility in GFP^+ cells and increases in HILO gene expression (upper panel), and gene ontology pathways enriched in the intersection gene set. […] For FIGS. 8G and 8H, postnatal islets (day P11-14) from WT and β cell specific ERRγKO mice were cultured with or without rhWNT4 (100 ng/ml) for >5 days.
For orientation: A flow cytometer gives signals particle by particle.

B1: WNT4: recombinant human Wnt4 protein (R&D Systems), non-canonical WNT maturation factor (protein, UniProt P56705 23-351, looked up)
Protein Wnt-4: SNWLYLAKLSSVGSISEEETCEKLKGLIQRQVQMCKRNLEVMDSVRRGAQLAIEECQYQFRNRRWNCSTLDSLPVFGKVVTQGTREAAFVYAISSAGVAFAVTRACSSGELEKCGCDRTVHGVSPQGFQWSGCSDNIAYGVAFSQSFVDVRERSKGASSSRALMNLHNNEAGRKAILTHMRVECKCHGVSGSCEVKTCWRAVPPFRQVGHALKEKFDGATEVEPRRVGSSRALVPRNAQFKPHTDEDLVYLEPSPDFCEQDMRSGVLGTRGRTCNKTSKAIDGCELLCCGRGFHTAQVELAERCSCKFHWCCFVKCRQCQRLVELHTCR
Turning to B1, the “expression of ERRγ (ESRRG) and mitochondrial genes” value is “dose-dependently increased” in assay [1] and “induced” in assay [1] (listed as rhWNT4). The “genes with both increased chromatin accessibility and induced expression” value in assay [2] came out at 123 genes. The “proportion of insulin expressing cells” value in assay [3] (GFP sorting, HILOs with and without WNT treatment) is recorded as “not affected”. For the same molecule, in assay [3] (MitoTracker, HILOs / insulin-expressing cells), the “mitochondrial content / number” value is recorded as “increased mitochondrial number; also recorded: increased the mitochondrial content”.
